Experiment: soluble on expression in E. coli; label from the status in PepcDB or PDB records

Row | Sequence | soluble on expression in E. coli
1 | MAKLDKKVYERELELLQIELVKLQEWVKQEKLKLVVIFEGRDAAGKGGVIKTITEKLNPRVCRVAALPAPTEKEKTQWYFQRYVAHLPAGGEIVLFDRSWYNRAGVEKVMGFCSDEEYQEFLRSCPEFERMLQRSGIILLKYWFSVSDEEQERRFIERINTPLKRWKFSPMDLESRQRWAAYSRAKDEMFAYTDTKHCPWWVVPSDDKKRARLNCISHLLSSVEYQEIEHAPITLPEINKQGYVRPPIEDQTFVPQRY | not soluble
2 | AAIYHLDVSGQATIRFRPPAFLKTLVSEHAGTTRLNTLSMIHHDDRHMLSNAYSKLREAKHSLTLVYRIVTPEGKLHWIEDHMRSSFSDD | not soluble
3 | MSLNPSESRSIAALREIVESARPLSYIRSSEEQRVERLLKDAAQRFFSTKVPVWTWSLTEGLRCDDGAVDASASDPRAALDFIAAYQGPALFHLKDFHEPLRERADIRRRLRDLYGACFDQGKFVVISSPVRYIPEELGRSIMYIELTLPDLAELIGFLREEVHAVKALGGSADTDDATLTQIARALQGLTLDESRHAIRRALAAGGGLGADSLPALYEEKRLLVNRTGMIQYVADGTQIASVGGLEIMKKWLMERRELFQLRDSISAEIVPKGVLIMGVSGCGKSLSVKAIASAFGLPLYRIDMTEIFSGRHGSAEGAFVSACRMLEQIAPAVVWFDEIEMGVNSTESAGEQGRIFAFFLTWMQEKTSGLFVAATANRIDLLPAEMTRKGRFDEIFFVDLPLDDERVEIFRIHLERRGIDTTPFDLTRLIKITKGWVGAEVEQCVVSALTTAHLDNREVTVEDLLRAAGKIVPLSKTMKEQVDHIRSWAYNRAVRASEGHHHHHH | soluble
4 | MSMDNHIVIMAGGIGSRFWPMSTPECPKQFIDVMGCGRTLIQLTADRFDGVCPRENVWVVTSEKYIDIVREQLPEIPESNILAEPCARNTAPCIAYACWKIKKKHPNANVVVTPSDALVINTGEFRRVVEKALRFTDNSSAIVTLGIKPTRPETGYGYIAAGDQIMTDKEIFTVDAFKEKPDRETADRYLAEGNYFWNAGIFVWNVRTITSVMRVYAPGIAQIFDRIFPDFYTEKENETIKKLFPTCEAISIDYAVMEKAQEIYVLPASFGWSDLGTWGALRGLLPQDKSGNATVGADVRLYESKNCIVHTSEEKRVVIQGLDGYIIAEKDNTLLICKLDEEQRIKEFSK | not soluble
5 | MKKIALAVLSLGLLVSGCSAGADKDEKVAEKSGKAKEQSVVPKYAISDEYYKTTIPFDGGNARGLVVQGLNSRLDIDEFETGLMRIAKESFSTKDNFLKGGKALDTQTIQMLVKRKRTDAEQKELEDKLKKDAVKFPNIGLNPALGTGSESLEVKNKKNPIYISNILEHDYYVKKGDNGEERVGMVVGLAMNSVQYFNEEHGYPREAAIPDEKMLAEGKKMAQEILKVIHQKEPETKNIPITFAIYRQAPKSSLVPGNFVSYANVEKGSETVEDWQQINEKYYLFPSEQAKTDNKREDLARVSNFKAKLSDYFQGDYTAVIGTGMYRDDELREMKLDIPVQFNGKAEIVGFTQYVAGLVMEYFPNYMKVQVTIKSVERPEAIIIREAKQDEPLVKILD | not soluble
6 | MGSDKIHHHHHHMNTLEIAKEVFEKEAQAILDLATNLDENFNQAVNLMLNTKGRCIVSGMGKSGHIGAKIAATLASTGTPSFFIHPGEALHGDLGMLTSEDVLIAISNSGETEEILKIIPAIKKREIPLIVMCGKKNSTLVKQGDIFLNIAVEKEACPLQLAPMSSTTATLVMGDALAAALMKVRNFKPDDFALFHPGGSLGRKLLTKVKDLMVSSNLPIVHPDTEFNDLVDVMTSGKLGLCVVLENEKLVGIITDGDLRRALKASDKPRFDFKAKEIMSINPKVVDADAMASEAEGIMLKHKIKEIIVGKEEKVVGIIQLYAIGNV | not soluble
7 | MGSDKIHHHHHHMVAMRIAIIGANGQLGTDLVEVFGNDPEFEVVPLTHKDLDVTIPESLKVLKEIKPDVLINTAAYVRVDDAELYPEKAFAVNAIGALNVARIANEIDAVNVYISTDYVFDGEKGEPYTEEDVPNPINVYGVSKYTGEIFTRNYSPKHYIIRVASLYGKAGASGKGGNFVEWVIEKAKHGEELKIVDDQFMSPTYTKDVARTLKEFLKLRSEFGVYHMVNEGFCSWYEFTEAIFDVLGWNVEIKPIKSNELNRLAKRPRFSALKNEKLEKIGLRMRHWREALEEYLKEKGYV | not soluble
8 | MGSDKIHHHHHHMKRIDLNGFWSVRDNEGRFSFEGTVPGVVQADLVRKGLLPHPYVGMNEDLFKEIEDREWIYEREFEFKEDVKEGERVDLVFEGVDTLSDVYLNGVYLGSTEDMFIEYRFDVTNVLKEKNHLKVYIKSPIRVPKTLEQNYGVLGGPEDPIRGYIRKAQYSYGWDWGARIVTSGIWKPVYLEVYRARLQDSTAYLLELEGKDALVRVNGFVHGEGNLIVEVYVNGEKIGEFPVLEKNGEKLFDGVFHLKDVKLWYPWNVGKPYLYDFVFVLKDLNGEIYREEKKIGLRRVRIVQEPDEEGKTFIFEINGEKVFAKGANWIPSENILTWLKEEDYEKLVKMARSANMNMLRVWGGGIYEREIFYRLCDELGIMVWQDFMYACLEYPDHLPWFRKLANEEARKIVRKLRYHPSIVLWCGNNENNWGFDEWGNMARKVDGINLGNRLYLFDFPEICAEEDPSTPYWPSSPYGGEKANSEKEGDRHVWYVWSGWMNYENYEKDTGRFISEFGFQGAPHPETIEFFSKPEEREIFHPVMLKHNKQVEGQERLIRFIFGNFGKCKDFDSFVYLSQLNQAEAIKFGVEHWRSRKYKTAGALFWQFNDSWPVFSWSAVDYFKRPKALYYYARRFFAEVLPVLKKRDNKIELLVVSDLRETKEVSLRLAAYEKKGEKVFEKTYRTVLPADGVSLVDRVELPDDLFFFVEAEVDGVKYRNYRVFRKWRDLELPDPEISLEDMGELIELTAQRPAFGVKILSDEVPEDDFLFLEPGRSITLKKPDGVRGVKSLFDYLR | not soluble
9 | SNAMNVNQIVRIIPTLKANNRKLNETFYIETLGMKALLEESAFLSLGDQTGLEKLVLEEAPSMRTRKVEGRKKLARLIVKVENPLEIEGILSKTDSIHRLYKGQNGYAFEIFSPEDDLILIHAEDDIASLVEVGEKPEFQTDLASISLSKFEISMELHLPTDIESFLESSEIGASLDFIPAQGQDLTVDNTVTWDLSMLKFLVNELDIASLRQKFESTEYFIPKSEKFFLGKDRNNVELWFEEV | soluble
10 | MTTSPDPYAALPKLPSFSLTSTSITDGQPLATPQVSGIMGAGGADASPQLRWSGFPSETRSFAVTVYDPDAPTLSGFWHWAVANLPANVTELPEGVGDGRELPGGALTLVNDAGMRRYVGAAPPPGHGVHRYYVAVHAVKVEKLDLPEDASPAYLGFNLFQHAIARAVIFGTYEQR | soluble
11 | DVTPRRDAEYPPPEFLEAMKPLREICIKKTGVTEEAIIEFSDGKVHEDENLKCYMNCLFHEAKVVDDTGHVHLEKLHDALPDSMHDIALHMGKRCLYPEGENLCEKAFWLHKCWKESDPKHYFLI | soluble
12 | FAEDPSPYVLLDRDLTMIWANAAYLRATGLARDEVVGRRMFDVFPAEAESIPDQMLRASLRRAVEQGRPDHLPLIPYPIRNQDGRMEERFWSATNTPIKDAEGHVEFILQNTNDIT | not soluble
13 | SKTNPRLSSLIADLKSAARSSGGAVWGDVAERLEKPRRTHAEVNLGRIERYAQEDETVVVPGKVLGSGVLQKDVTVAAVDFSGTAETKIDQVGEAVSLEQAIENNPEGSHVRVIR | soluble
14 | VNEVLAKNLSLLKEYQPETYLKLDRYIKGEYVPKDNSVEKILLARQDDLIINILVKCSDKDFLLCDHENPINEAYAWIDKYIDPSNKADIVFGMGLAFHLEVLLTSFPNKKVIVIEPNINLFYQIACIRNLEPVIKKAEIIVDEDLDVILERINSLFWDTEKGGIQVQPLEVYGEMFPEMWDKLRDSFIKLANNFTVDIATRRKFGELWVHNNIKNLNKICEASNAGVLVGKFKGIPGILVSAGPSLEKNIHLLKGLEDKCVIMAAGTAVRIMEDFGLAPHFMVGIDAGAKEGEIHSNVKNKDIYFIYSNQVSTYSVDGYKGPKFVMNYPIDMYTAGFFEYAGIKSDFFLSGPSVANTCFDILFKMGCDPIIIIGQDMAFTYGSMYAGEVPGTVVDGAGEAKRRGYVLAKDIYGNEVYTTRPFLAMRNWFEGYFEKVRDKTTIINATEGGLNISYARNETLEAALKSCNLSESGIKDHIRSLHEEGKFADTVASKIEEYRAYVQREIRRLEQLSKRQLETAEDLKRDVYHPSKSRSRFIKAVNSINEMSDRVLQSPIYNSLLKNLVEIDFYIIKAEVDRLVKILTKYDDIKNVYVNAILSQNQKLNASLGKIKKFFDESDVTA | soluble
15 | MSLDIEQQFLNDLDNQLWRAADKLRSNLDAANYKHVVLGLIFLKYVSDAFEERQQELTELFQKDDDDNIYYLPREDYDSDEAYQQAIAEELEIGDYYTEKNVFWVPKTARWNKLRDVITLPTGSVIWQDEQGEDVKLRSVSWLIDNAFDDIEKANPKLKGILNRISQYQLDADKLIGLINEFSLTSFNNPEYNGEKLNLKSKDILGHVYEYFLGQFALAEGKQGGQYYTPKSIVTLIVEMLEPYKGRVYDPAMGSGGFFVSSDKFIEKHANVKHYNASEQKKQISVYGQESNPTTWKLAAMNMVIRGIDFNFGKKNADSFLDDQHPDLRADFVMTNPPFNMKDWWHEKLADDPRWTINTNGEKRILTPPTGNANFAWMLHMLYHLAPTGSMALLLANGSMSSNTNNEGEIRKTLVEQDLVECMVALPGQLFTNTQIPACIWFLTKDKNAKNGKRDRRGQVLFIDARKLGYMKDRVLRDFKDEDIQKLADTFHNWQQEWSEENNQAGFCFSADLALIRKNDFVLTPGRYVGAEAEEDEGHHHHHH | soluble
16 | MQKINIDRHATAQINMLANKLMLKSSTAYTQKFGIGMTEWRIISVLSSASDCSVQKISDILGLDKAAVSRTVKKLEEKKYIEVNGHSEDKRTYAINLTEMGQELYEVASDFAIEREKQLLEEFEEAEKDQLFILLKKLRNKVDQM | soluble
17 | MMNEPQVSFITVCYNGFKDTCELIESLQTHVHSVSYEIIVVDNASREDEATKIKELYSDIVTLRSESNLGFSGGNNLGIRVAKGAYIFLINNDTYVESDGFHYLTERLESQKNIGAVSPKIRFAFPPQNIQFAGFTSLSAITIRNEMTGFGCPDDGTFDTPHTTPYLHGAALMVKREVIEKVGEMPEIFFLYYEEMDWCTQMTNAGYELWYEPRCTVFHKESQSTGQFSKLRTFYMTRNRLLYTRRNRKGAQRLLSILYQSTIAAGKNSLQFAVKGRFDLFAAVWKGVVRSFSVTSPIRLEHHHHHH | not soluble
18 | MSLGQRTSRTPDQLENVGVDQKLGATIPKDLSFQNEQGEPVRLSQYFDGSTPVMLTLNYHRCPQLCRIQLQKFTKSLSGMSWTAGDKFKVLTVDISPYEGPKMARKAQERYATFLDRPEETVDGWHFLTGNQAAIETLTDSVGFRYQPLPEKEKQFAHPTTIIFLSGDGTITRYFTTLDPAPGDLRTALVEASDGEGHHHHHH | soluble
19 | MSFCSFFGGEVFQNHFEPGVYVCAKCSYELFSSHSKYAHSSPWPAFTETIHPDSVTKCPEKNRPEALKVSCGKCGNGLGHEFLNDGPKRGQSRFCIFSSSLKFVPKGKEAAASQGHLEHHHHHH | soluble
20 | MAVRKLTTGKWLCECYPAGRSGRRVRKQFATKGEALAFERHTMEETEAKPWLGESVDRRTLKDVVELWFKLHGKSLTAGQHVYDKLLLMVDALGNPLATDLTSKMFAHYRDKRLTGEIYFSEKWKKGASPVTINLEQSYLSSVFSELSRLGEWSYPNPLENMRKFTIA | not soluble
21 | MTMTMSYKAIEKIPRCSWNREEPGEQWNKIYSVETGLLGTYSFEWQSQVANKTMRKRNTNSICGRQHEPHCPVSITRAIAQPQLLTFPDSLASRGGHMTQSGQCHVSGSLLGRGHKSRGR | soluble
